Results on 2 substances are retold here after patent publication US20030077318A1.

The target of test [1] is recombinant biotinylated L^d immobilized on avidin-coated sheep red blood cells (mouse) (UniProt P01897). Description: flow cytofluorometry of L^d on avidin-coated SRBC.
The target of test [2] is L^d on transfected Drosophila S2 (fly) cells with QL9 peptide (mouse) (UniProt P01887). Description: cell-based or functional assay.
For test [3], the target named is L^d on transfected Drosophila S2 (fly) cells with p2Ca peptide (mouse) (UniProt P01887). Description: cell-based or functional assay.
L^d on transfected Drosophila S2 (fly) cells with p2Ca peptide (mouse), sequence (P01897 25-362, chain 1 of 2): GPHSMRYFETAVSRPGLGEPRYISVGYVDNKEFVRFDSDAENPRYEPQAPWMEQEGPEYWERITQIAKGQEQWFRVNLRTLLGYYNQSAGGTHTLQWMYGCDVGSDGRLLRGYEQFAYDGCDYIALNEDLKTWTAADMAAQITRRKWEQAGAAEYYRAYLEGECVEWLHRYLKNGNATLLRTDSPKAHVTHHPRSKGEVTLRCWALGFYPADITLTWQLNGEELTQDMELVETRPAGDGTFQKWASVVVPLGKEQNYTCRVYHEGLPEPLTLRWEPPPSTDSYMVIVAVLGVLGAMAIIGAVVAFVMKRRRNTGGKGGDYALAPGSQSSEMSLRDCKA
L^d on transfected Drosophila S2 (fly) cells with p2Ca peptide (mouse), sequence (P01887 21-119, chain 2 of 2): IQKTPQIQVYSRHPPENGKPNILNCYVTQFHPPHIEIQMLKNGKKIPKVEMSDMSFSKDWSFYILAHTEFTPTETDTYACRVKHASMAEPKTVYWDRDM

L^d on transfected Drosophila S2 (fly) cells with QL9 peptide (mouse), sequence (P01897 25-362, chain 1 of 2): as the sequence (P01897 25-362, chain 1 of 2) above
L^d on transfected Drosophila S2 (fly) cells with QL9 peptide (mouse), sequence (P01887 21-119, chain 2 of 2): as the sequence (P01887 21-119, chain 2 of 2) above
recombinant biotinylated L^d immobilized on avidin-coated sheep red blood cells (mouse), sequence (P01897 25-362): as the sequence (P01897 25-362, chain 1 of 2) above

Take monoclonal antibody 30.5.7 (anti-L^d): in test [1], the percent of cells labeled came out at 99.8%.
On to “2C T-cell receptor (TCR), on CD8+ lymph node T cells of 2C TCR transgenic mice”, for which, in test [2], the IL-2 Production (Day 2), ^3HTdR incorporation of CTLL; L^d + B7.1 cells combined with L^d ICAM-1 cells was 500 cpm; the IL-2 Production (Day 2), ^3HTdR incorporation of CTLL; fly cells expressing L^d is 100 cpm; the IL-2 Production (Day 2), ^3HTdR incorporation of CTLL; fly cells expressing L^d + B7.1 was found to be 400 cpm; the IL-2 Production (Day 2), ^3HTdR incorporation of CTLL; fly cells expressing L^d + B7.1 + ICAM-1 came out at 159000 cpm. Moreover, in test [2], the IL-2 Production (Day 2), ^3HTdR incorporation of CTLL; fly cells expressing L^d + ICAM-1 came to 200 cpm; the Proliferation (Day 3), ^3HTdR incorporation; L^d + B7.1 cells combined with L^d ICAM-1 cells was found to be 133000 cpm; the Proliferation (Day 3), ^3HTdR incorporation; fly cells expressing L^d is 200 cpm; the Proliferation (Day 3), ^3HTdR incorporation; fly cells expressing L^d + B7.1 worked out at 60900 cpm. In test [2], the Proliferation (Day 3), ^3HTdR incorporation; fly cells expressing L^d + B7.1 + ICAM-1 was 264000 cpm and the Proliferation (Day 3), ^3HTdR incorporation; fly cells expressing L^d + ICAM-1 stood at 73900 cpm. Moreover, in test [3], the IL-2 Production (Day 2), ^3HTdR incorporation of CTLL; L^d + B7.1 cells combined with L^d ICAM-1 cells was 300 cpm; the IL-2 Production (Day 2), ^3HTdR incorporation of CTLL; fly cells expressing L^d amounted to 200 cpm; the IL-2 Production (Day 2), ^3HTdR incorporation of CTLL; fly cells expressing L^d + B7.1 amounted to 200 cpm; the IL-2 Production (Day 2), ^3HTdR incorporation of CTLL; fly cells expressing L^d + B7.1 + ICAM-1 was found to be 64600 cpm. Also, in test [3], the IL-2 Production (Day 2), ^3HTdR incorporation of CTLL; fly cells expressing L^d + ICAM-1 stood at 100 cpm; the Proliferation (Day 3), ^3HTdR incorporation; L^d + B7.1 cells combined with L^d ICAM-1 cells worked out at 1500 cpm; the Proliferation (Day 3), ^3HTdR incorporation; fly cells expressing L^d amounted to 200 cpm; the Proliferation (Day 3), ^3HTdR incorporation; fly cells expressing L^d + B7.1 came to 300 cpm. In test [3], the Proliferation (Day 3), ^3HTdR incorporation; fly cells expressing L^d + B7.1 + ICAM-1 turned out to be 142000 cpm and the Proliferation (Day 3), ^3HTdR incorporation; fly cells expressing L^d + ICAM-1 was 1500 cpm.
